According to paper PMC4609290 (Molecular cell, 2015):

Experiments:
[1] = biological target: T1, AF10PZP (Homo sapiens, UniProt P55197); assay: Binding of minimal H3 peptide to the PZP domain; details: Figure S1D
T1 sequence (P55197 18-208 isoform P55197-1): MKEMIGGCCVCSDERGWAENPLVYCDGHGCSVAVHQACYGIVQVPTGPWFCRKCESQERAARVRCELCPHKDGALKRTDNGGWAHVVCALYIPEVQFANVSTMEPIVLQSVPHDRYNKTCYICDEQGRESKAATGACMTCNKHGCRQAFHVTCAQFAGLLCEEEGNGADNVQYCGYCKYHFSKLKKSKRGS

[2] = biological target: T1, AF10PZP; assay: Histone peptide pull-down with AF10PZP; assay type: binding; details: biotinylated H3 peptides, Western blot; GST-AF10PZP
[3] = tested on: AF17PZP; assay: Histone peptide pull-down with AF17PZP; assay type: binding, human; details: biotinylated H3 peptides, Western blot
[4] = tested on: JADE1PZP; assay: Histone peptide pull-down with JADE1PZP; assay type: binding, human; details: biotinylated H3 peptides, Western blot
[5] = biological target: T1, AF10PZP; assay: ITC binding of H3 peptides to AF10PZP; details: standard deviation derived from nonlinear fitting

| Substance | binding of minimal peptide to the PZP domain [1] | binding to AF10PZP (peptide pull-down) [2] | binding to AF17PZP (peptide pull-down) [3] | binding to JADE1PZP (peptide pull-down) [4] | Kd [5] |
| --- | --- | --- | --- | --- | --- |
| H3(1-36) peptide spanning residues A21 to K27: minimal peptide, segment of H3(1-36) spanning residues A21 to K27 (ATKAARK; UniProt P68431 22-28, looked up, fragment) | sufficient for binding, though with weaker affinity than the longer peptide |  |  |  |  |
| H3K27 acetylated: Acetylation of H3K27, H3 (aa 15-34) peptides |  | disrupted recognition | disrupted recognition |  |  |
| H3_1-21: peptide spanning amino acids 1-21 (H3_1-21; the very N-terminus of H3) |  | did not bind | did not bind | bound as expected |  |
| H3_15-34 di-methylation at K27: H3_15-34 peptide with di-methylation at K27 |  | abolished | abolished |  | could no longer be detected |
